Test results from patent US20230242658A1 (published 2023).

Experiments:
[1] = molecular target: T1, human PD-L1 on CHO-K1 cells (human, UniProt Q9NZQ7 19-290); assay: FACS; MDA-MB-231 cells; FIG. 24E
[2] = molecular target: T1, human PD-L1 on CHO-K1 cells; assay: FACS; MDA-MB-231 cells; FIG. 24D
[3] = molecular target: T1, human PD-L1 on CHO-K1 cells; assay: FACS; MDA-MB-231 cells; FIG. 24C
[4] = molecular target: T2, human 4-1BB on CHO-K1 cells (human, UniProt Q07011 24-255); assay: FACS blocking of 4-1BBL; FIG. 14D
[5] = molecular target: T2, human 4-1BB on CHO-K1 cells; assay: FACS blocking of 4-1BBL; FIG. 14C
[6] = molecular target: T2, human 4-1BB on CHO-K1 cells; assay: FACS; FIG. 11E
[7] = molecular target: T2, human 4-1BB on CHO-K1 cells; assay: FACS; FIG. 11F
[8] = molecular target: T2, human 4-1BB on CHO-K1 cells; assay: FACS; FIG. 11D
[9] = molecular target: T2, human 4-1BB on CHO-K1 cells; assay: FACS; FIG. 11B
[10] = molecular target: T2, human 4-1BB on CHO-K1 cells; assay: FACS; FIG. 11L
Target sequence in this assay (Q07011 24-255): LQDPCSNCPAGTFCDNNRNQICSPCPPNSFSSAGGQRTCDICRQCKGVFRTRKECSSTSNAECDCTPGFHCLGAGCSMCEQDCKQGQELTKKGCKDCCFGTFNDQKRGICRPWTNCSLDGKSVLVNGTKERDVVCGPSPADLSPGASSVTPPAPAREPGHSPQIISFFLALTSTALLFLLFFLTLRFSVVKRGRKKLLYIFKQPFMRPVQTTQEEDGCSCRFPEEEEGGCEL

[11] = molecular target: T2, human 4-1BB on CHO-K1 cells; assay: FACS
Target sequence in this assay (Q07011 24-255): as above

[12] = molecular target: T2, human 4-1BB on CHO-K1 cells; assay: FACS blocking of 4-1BBL; FIG. 14B
[13] = molecular target: T2, human 4-1BB on CHO-K1 cells; assay: FACS; FIG. 11K
Target sequence in this assay (Q07011 24-255): as above

[14] = molecular target: T2, human 4-1BB on CHO-K1 cells; assay: FACS; FIG. 11G
[15] = molecular target: T2, human 4-1BB on CHO-K1 cells; assay: FACS; FIG. 11M
Target sequence in this assay (Q07011 24-255): as above

[16] = molecular target: T2, human 4-1BB on CHO-K1 cells; assay: FACS blocking of 4-1BBL; FIG. 14A
[17] = molecular target: T2, human 4-1BB on CHO-K1 cells; assay: FACS; FIG. 11C
[18] = molecular target: T3, cynomolgus monkey 4-1BB on CHO-K1 cells (cynomolgus monkey); assay: FACS; FIG. 12B
T3 chain: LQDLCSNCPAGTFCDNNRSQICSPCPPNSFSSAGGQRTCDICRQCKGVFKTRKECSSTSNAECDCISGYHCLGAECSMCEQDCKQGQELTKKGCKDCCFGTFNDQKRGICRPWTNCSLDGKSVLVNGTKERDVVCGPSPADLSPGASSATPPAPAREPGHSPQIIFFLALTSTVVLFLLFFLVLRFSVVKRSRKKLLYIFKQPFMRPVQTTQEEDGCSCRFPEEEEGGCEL

[19] = molecular target: T3, cynomolgus monkey 4-1BB on CHO-K1 cells; assay: FACS; FIG. 12I
[20] = molecular target: T3, cynomolgus monkey 4-1BB on CHO-K1 cells; assay: FACS; FIG. 21B
[21] = molecular target: T3, cynomolgus monkey 4-1BB on CHO-K1 cells; assay: FACS; FIG. 12K
[22] = molecular target: T3, cynomolgus monkey 4-1BB on CHO-K1 cells; assay: FACS; FIG. 21A
[23] = molecular target: T3, cynomolgus monkey 4-1BB on CHO-K1 cells; assay: FACS
[24] = molecular target: T3, cynomolgus monkey 4-1BB on CHO-K1 cells; assay: FACS; FIG. 12D
[25] = molecular target: T3, cynomolgus monkey 4-1BB on CHO-K1 cells; assay: FACS; FIG. 12C
[26] = molecular target: T3, cynomolgus monkey 4-1BB on CHO-K1 cells; assay: FACS; FIG. 12E
[27] = molecular target: T3, cynomolgus monkey 4-1BB on CHO-K1 cells; assay: FACS
[28] = molecular target: T3, cynomolgus monkey 4-1BB on CHO-K1 cells; assay: FACS; FIG. 12A
[29] = molecular target: T3, cynomolgus monkey 4-1BB on CHO-K1 cells; assay: FACS; FIG. 12F
[30] = molecular target: T3, cynomolgus monkey 4-1BB on CHO-K1 cells; assay: FACS; FIG. 12J
[31] = molecular target: T3, cynomolgus monkey 4-1BB on CHO-K1 cells; assay: FACS; FIG. 12L
[32] = molecular target: T3, cynomolgus monkey 4-1BB on CHO-K1 cells; assay: FACS; FIG. 12H
[33] = molecular target: T2, human 4-1BB on CHO-K1 cells; assay: FACS blocking of 4-1BBL binding

T1 sequence (Q9NZQ7 19-290): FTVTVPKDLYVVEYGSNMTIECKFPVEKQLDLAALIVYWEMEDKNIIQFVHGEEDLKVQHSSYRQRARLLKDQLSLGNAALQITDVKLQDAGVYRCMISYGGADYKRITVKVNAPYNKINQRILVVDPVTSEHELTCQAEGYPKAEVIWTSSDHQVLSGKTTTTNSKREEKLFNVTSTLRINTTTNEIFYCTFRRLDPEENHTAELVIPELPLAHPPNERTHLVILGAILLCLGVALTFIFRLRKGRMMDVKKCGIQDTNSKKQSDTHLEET

B1: PR000265 (antibody, V domains shown)
VH: EVQLVESGGGLVQPGGSLRLSCAASGFTFSSYWMSWVRQAPGKGLEWVANIKQEGSEKYYVDSVKGRFTISRDNAKNSLYLQMNSLRAEDTAVYYCARDRAVAGAFDIWGQGTMVTVSS
VL: DIQMTQSPSTLSASVGDRVTVTCRASQSIYIWLAWYQQKPGKAPNLLIYKASSLETGVPSRFSGSGSGTEFTLTISSLQPDDFATYYCQQYYGSSRTFGQGTKVEIKR
**Q.** For B1, which EC50 [1] is on record?
**A.** 0.233 nM

**Q.** What about the EC50 [2] of the same binder?
**A.** 0.233 nM

**Q.** What about the EC50 [3] of the same binder?
**A.** 0.11 nM

B2: Urelumab (antibody, V domains shown)
VH: QVQLQQWGAGLLKPSETLSLTCAVYGGSFSGYYWSWIRQSPEKGLEWIGEINHGGYVTYNPSLESRVTISVDTSKNQFSLKLSSVTAADTAVYYCARDYGPGNYDWYFDLWGRGTLVTVSS
VL: EIVLTQSPATLSLSPGERATLSCRASQSVSSYLAWYQQKPGQAPRLLIYDASNRATGIPARFSGSGSGTDFTLTISSLEPEDFAVYYCQQRSNWPPALTFGGGTKVEIKR
**Q.** How did the IC50 [4] turn out when B2 was run?
**A.** 2.37 nM

**Q.** What about the IC50 [5] of the same binder?
**A.** 2.41 nM

**Q.** What about the EC50 [6] of the same binder?
**A.** 0.222 nM

**Q.** What about the EC50 [7] of the same binder?
**A.** 0.222 nM

**Q.** And the EC50 [8]?
**A.** 0.222 nM

**Q.** What about the EC50 [9] of the same binder?
**A.** 0.222 nM

**Q.** What about the EC50 [10] of the same binder?
**A.** 0.565 nM

**Q.** What about the EC50 [11] of the same binder?
**A.** 0.222 nM

**Q.** What about the IC50 [12] of the same binder?
**A.** 1.5 nM

**Q.** What about the EC50 [13] of the same binder?
**A.** 0.583 nM

**Q.** What about the EC50 [14] of the same binder?
**A.** 0.222 nM

**Q.** What about the EC50 [15] of the same binder?
**A.** 0.55 nM

**Q.** And the IC50 [16]?
**A.** ~2.53 nM

**Q.** What about the EC50 [17] of the same binder?
**A.** 0.222 nM

B3: Utomilumab (antibody, V domains shown)
VH: EVQLVQSGAEVKKPGESLRISCKGSGYSFSTYWISWVRQMPGKGLEWMGKIYPGDSYTNYSPSFQGQVTISADKSISTAYLQWSSLKASDTAMYYCARGYGIFDYWGQGTLVTVSS
VL: SYELTQPPSVSVSPGQTASITCSGDNIGDQYAHWYQQKPGQSPVLVIYQDKNRPSGIPERFSGSNSGNTATLTISGTQAMDEADYYCATYTGFGSLAVFGGGTKLTVLG
**Q.** What does the source list for B3?
**A.** EC50 [18]: 3.46 nM; EC50 [19]: 0.378 nM; EC50 [20]: 0.984 nM; EC50 [21]: 0.503 nM; EC50 [22]: 1.34 nM; EC50 [23]: 0.337 nM; EC50 [24]: 3.46 nM; EC50 [25]: 3.46 nM; EC50 [26]: 3.46 nM; EC50 [27]: 0.347 nM; EC50 [28]: 3.46 nM; EC50 [29]: 3.46 nM; EC50 [30]: 0.435 nM; EC50 [31]: 0.425 nM; EC50 [32]: 0.393 nM

B4: PR000448 (antibody, V domains shown)
VH: QVQLQQWGAGLLKPSETLSLTCAVYGGSFSGYYWSWIRQPPGKGLEWIGEIQHSGSTDSNPSLKGRVTFSVDTSKNQFSLKLNSVTAADTAVYYCARLTGPFDYWGQGTLVTVSS
VL: EIVMTQSPATLSVSPGERATLSCRASQSISSILAWYQQKPGQAPRLLIYGASTRATGIPARFSGSGSGTEFTLTISSLQSEDFAVYYCQQYYNWPLTFGGGTKVEIKR
**Q.** How did the EC50 [33] turn out when B4 was run?
**A.** 2.05 nM
